According to patent US20240116985A1 (published 2024):
Starred links: 1 amine or outer side, 2 acyl side, 3 side chain; linkers in the order of their positions; H or OH if unused. Positions of bridges follow the written chain, without caps; N, C: chain ends. Non-standard residues stand in square brackets, D forms with d. Primed or numbered codes have the meaning given here. PyrS2(3) = (S)-3-amino-1-((pent-4-en-1-yloxy)carbonyl)pyrrolidine-3-carboxylic acid, stapling residue, C=CCCCOC(=O)N1CC[C@@](N[*:1])(C(=O)[*:2])C1; PyrS2″ = (S)-3-amino-1-((pent-4-en-1-yloxy)carbonyl)pyrrolidine-3-carboxylic acid (stapling residue), C=CCCCOC(=O)N1CC[C@@](N[*:1])(C(=O)[*:2])C1; B5(4) = 2,2-bis(4-pentenyl)glycine = 2-amino-2-(pent-4-en-1-yl)hept-6-enoic acid (stitching residue), C=CCCCC(CCCC=C)(N[*:1])C(=O)[*:2]; TfeGA = (S)-2-amino-3-((carboxymethyl)(2,2,2-trifluoroethyl)amino)propanoic acid, O=C([C@H](CN(CC(=O)[*:3])CC(F)(F)F)N[*:1])[*:2]; PyrS2 = (S)-3-amino-1-((pent-4-en-1-yloxy)carbonyl)pyrrolidine-3-carboxylic acid, C=CCCCOC(=O)N1CC[C@@](N[*:1])(C(=O)[*:2])C1; B5(3) = 2,2-bis(4-pentenyl)glycine (stitching residue), C=CCCCC(CCCC=C)(N[*:1])C(=O)[*:2]; B5″ = 2,2-bis(4-pentenyl)glycine, stitching residue, C=CCCCC(CCCC=C)(N[*:1])C(=O)[*:2]; Trp(1-Me) = Cn1cc(C[C@H](N)C(=O)O)c2ccccc21; Phe(2-Cl) = N[C@@H](Cc1ccccc1Cl)C(=O)O; Bta = N[C@@H](Cc1csc2ccccc12)C(=O)O; Lys(iPr) = CC(C)NCCCC[C@H](N)C(=O)O; αAllylPro = C=CC[C@@]1(C(=O)O)CCCN1; tBuAla = CC(C)(C)C[C@H](N)C(=O)O; 3Thi = N[C@@H](Cc1ccsc1)C(=O)O; hSer = N[C@@H](CCO)C(=O)O

T1: full-length beta-Catenin (Uniprot ID P35222) (Homo sapiens (Human), UniProt P35222 2-781)
T1 construct: The assay protocols say only 'full-length'; No tag is stated, although the AlphaScreen kit is a Histidine (Nickel Chelate) kit; also called B-Catenin; bCat
T1 sequence: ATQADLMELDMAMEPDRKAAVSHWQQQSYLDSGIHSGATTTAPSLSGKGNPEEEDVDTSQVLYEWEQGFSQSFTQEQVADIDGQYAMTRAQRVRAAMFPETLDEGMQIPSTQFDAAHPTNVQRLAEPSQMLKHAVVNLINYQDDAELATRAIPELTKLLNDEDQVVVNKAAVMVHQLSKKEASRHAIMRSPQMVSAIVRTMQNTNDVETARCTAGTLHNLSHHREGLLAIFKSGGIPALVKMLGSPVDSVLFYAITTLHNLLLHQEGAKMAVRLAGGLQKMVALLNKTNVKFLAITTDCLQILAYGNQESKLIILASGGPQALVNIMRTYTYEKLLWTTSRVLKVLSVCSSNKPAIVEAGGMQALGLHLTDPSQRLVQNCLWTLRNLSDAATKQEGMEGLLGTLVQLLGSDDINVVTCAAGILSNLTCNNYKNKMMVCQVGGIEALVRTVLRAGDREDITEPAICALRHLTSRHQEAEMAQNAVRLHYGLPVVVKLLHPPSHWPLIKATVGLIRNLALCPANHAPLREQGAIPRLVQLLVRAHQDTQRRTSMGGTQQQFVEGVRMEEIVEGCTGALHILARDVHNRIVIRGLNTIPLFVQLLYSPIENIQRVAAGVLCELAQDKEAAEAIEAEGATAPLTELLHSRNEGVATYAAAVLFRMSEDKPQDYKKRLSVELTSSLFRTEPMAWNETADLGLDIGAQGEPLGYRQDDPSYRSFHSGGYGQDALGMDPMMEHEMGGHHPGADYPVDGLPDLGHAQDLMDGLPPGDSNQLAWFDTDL

T2: full-length beta-Catenin (Uniprot ID P35222) (Homo sapiens (Human), UniProt P35222 2-781)
T2 construct: also called bCat; B-Catenin
T2 sequence: T1 sequence

T3: beta-catenin in TCF/LEF luciferase reporter cells (Homo sapiens (Human), UniProt P35222 1-781)
T3 sequence: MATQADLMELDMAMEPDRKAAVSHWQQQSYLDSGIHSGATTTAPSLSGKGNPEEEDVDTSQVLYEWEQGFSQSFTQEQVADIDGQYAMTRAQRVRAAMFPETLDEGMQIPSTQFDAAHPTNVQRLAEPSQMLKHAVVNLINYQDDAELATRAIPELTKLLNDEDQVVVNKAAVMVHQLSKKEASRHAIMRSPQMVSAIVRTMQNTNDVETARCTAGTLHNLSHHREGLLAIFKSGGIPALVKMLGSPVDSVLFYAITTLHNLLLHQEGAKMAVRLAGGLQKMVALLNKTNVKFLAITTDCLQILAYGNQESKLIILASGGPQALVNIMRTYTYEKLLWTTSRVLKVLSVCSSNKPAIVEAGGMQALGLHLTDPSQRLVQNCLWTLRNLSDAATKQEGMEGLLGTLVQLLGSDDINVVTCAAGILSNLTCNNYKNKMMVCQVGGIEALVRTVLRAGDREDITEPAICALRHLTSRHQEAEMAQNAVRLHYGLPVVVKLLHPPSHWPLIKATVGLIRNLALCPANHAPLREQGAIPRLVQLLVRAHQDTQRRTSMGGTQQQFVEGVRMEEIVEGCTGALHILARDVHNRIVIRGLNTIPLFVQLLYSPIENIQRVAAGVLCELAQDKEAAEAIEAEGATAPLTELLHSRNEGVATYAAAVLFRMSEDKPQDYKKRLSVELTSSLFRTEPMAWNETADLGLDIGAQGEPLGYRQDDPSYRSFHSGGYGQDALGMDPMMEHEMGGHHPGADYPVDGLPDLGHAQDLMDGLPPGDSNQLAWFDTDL

B1: I-350 (peptide)
peptide: XDAXADAAFVXFWQ
modifications: not fully specified; N-terminal Ac; C-terminal NH2; PL3 at 1, B5 at 4, S8 at 11 (stapled 1-4 and 4-11)
notes: Stapled peptide composition; Earlier-eluting isomer composition; also called Ac-PL3-Asp-Ala-B5-Ala-Asp-Ala-Ala-Phe-Val-S8-Phe-Trp-Gln-NH2

Target: T1, full-length beta-Catenin (Uniprot ID …)
Assay: AlphaScreen competition; peptide titrated against full-length beta-catenin + biotin-TCF4(10-53)
Experimental: Equal volume of the titrated peptide was added to the plate and incubated for 15 minutes at 20° C. Then 4 uL of donor and 4 uL acceptor beads at 10 ug/mL were added to the plate, for a 16 uL reaction pool and protected from light for 60 minutes at 20° C. prior to read. Reads were performed on a CLARIOstar plate reader (BMG Labtech) in duplicate, and data were fitted to a 1:1 binding model with hill slope using an in-house script. All provided concentrations are final concentrations.

Question: B1 was tested. Which EC50 did it give?
Answer: 10 µM

Target: T2, full-length beta-Catenin (Uniprot ID …)
Assay: fluorescence polarization competition; full-length beta-catenin, 5FAM-TCF4(10-53) probe as competitor
Experimental: The plate was incubated protected from light for 60 minutes at 20° C. prior to read. Reads were performed on a CLARIOstar plate reader (BMG Labtech) in duplicate, and data were fitted to a 1:1 binding model with hill slope using an in-house script. All provided concentrations are final concentrations.

Question: Ac-[αAllylPro]N[tBuAla][B5(4)]DT[Lys(iPr)]AFL[PyrS2″]F[Trp(1-Me)]Q-NH2 (staple 1-4, 4-11) [I-1589] was tested. Which IC50 did it give?
Answer: 10 µM

Question: With Ac-[αAllylPro]N[tBuAla][B5(4)]DT[Lys(iPr)]AFL[PyrS2″]FYQ-NH2 (staple 1-4, 4-11) [I-1585] as the binder, how does the IC50 read?
Answer: 10 µM

Question: For Ac-[αAllylPro]N[tBuAla][B5(4)]DT[Lys(iPr)]AFL[PyrS2]YWQ-NH2 (staple 1-4, 4-11) [I-1590], which IC50 is on record?
Answer: 7.52 µM

Question: Ac-[αAllylPro]NF[B5(4)]DT[Lys(iPr)]AFL[PyrS2″]F[Bta]Q-NH2 (staple 1-4, 4-11) [I-1580] was tested. Which IC50 did it give?
Answer: 1.43 µM

Question: With Ac-[αAllylPro]NS[B5(4)]DT[Lys(iPr)]AFL[PyrS2″]F[Bta]Q-NH2 (staple 1-4, 4-11) [I-1583] as the binder, how does the IC50 read?
Answer: 3.42 µM

Question: With Ac-[αAllylPro]NW[B5(4)]DT[Lys(iPr)]AFL[PyrS2″]F[Bta]Q-NH2 (staple 1-4, 4-11) [I-1581] as the binder, how does the IC50 read?
Answer: 10 µM

Question: Which IC50 does the source give for Ac-[αAllylPro]NQ[B5(4)]DT[Lys(iPr)]AFL[PyrS2″]F[Bta]Q-NH2 (staple 1-4, 4-11) [I-1584] here?
Answer: 2.44 µM

Question: Ac-[αAllylPro]NL[B5(4)]DT[Lys(iPr)]AFL[PyrS2″]F[Bta]Q-NH2 (staple 1-4, 4-11) [I-1582] was tested. Which IC50 did it give?
Answer: 1.22 µM

Question: With Ac-[αAllylPro]N[Lys(iPr)][B5(4)]DT[Lys(iPr)]AFL[PyrS2]F[Bta]Q-NH2 (staple 1-4, 4-11) [I-1591] as the binder, how does the IC50 read?
Answer: 3.11 µM

Target: T3, beta-catenin in TCF/LEF luciferase …
Assay: cell-based or functional assay

Question: For Ac-[αAllylPro]D[tBuAla][B5″]D[TfeGA]AAFN[PyrS2(3)][3Thi][Bta]Q-NH2 (staple 1-4, 4-11) [I-762], which “TCF Reporter Assay Abs IC50 (uM), peptide + ST-Protein” value is on record?
Answer: 0.3 µM

Question: And the “TCF Reporter Assay Abs IC50 (uM), peptide only” value?
Answer: 7 µM

Question: How did the “TCF Reporter Assay Abs IC50 (uM), peptide + ST-Protein” value turn out when Ac-[αAllylPro]D[tBuAla][B5(3)]D[TfeGA]AAF[hSer][PyrS2″][Phe(2-Cl)][Bta][hSer]-NH2 (staple 1-4, 4-11) [I-993] was run?
Answer: 0.2 µM

Question: And the “TCF Reporter Assay Abs IC50 (uM), peptide only” value?
Answer: 5 µM

Question: How did the “TCF Reporter Assay Abs IC50 (uM), peptide + ST-Protein” value turn out when Ac-[αAllylPro]D[tBuAla][B5(3)]D[TfeGA]AAFT[PyrS2″][Phe(2-Cl)][Bta]Q-NH2 (staple 1-4, 4-11) [I-922] was run?
Answer: 0.2 µM

Question: And the “TCF Reporter Assay Abs IC50 (uM), peptide only” value?
Answer: 5 µM

Question: Which “TCF Reporter Assay Abs IC50 (uM), peptide + ST-Protein” value does the source give for Ac-[αAllylPro]D[tBuAla][B5(3)]D[TfeGA]AAFL[PyrS2][3Thi][Bta]Q-NH2 (staple 1-4, 4-11) [I-849] here?
Answer: 0.2 µM

Question: And the “TCF Reporter Assay Abs IC50 (uM), peptide only” value?
Answer: 5 µM
